To fix the notation:
B1: 7A11H32 (antibody, V domains shown)
VH: QVQLVQSGAEVKKPGSSVKVSCKASGSSFTSNWMNWVRQAPGQGLEWIGMIHPSDSETRLNQKFKDRVTITADKSTSTAYMELSSLRSEDTAVYYCARGTTVVDAFAYWGQGTTVTVSS
VL: DIQMTQSPSSLSASVGDRVTMTCKSSQSLLNSRTRKNYLAWYQQKPGKAPKLLIYWASTRESGVPSRFSGSGSGTDFTLTISSLQPEDFATYYCKQSYNLRTFGGGTKLEIK
notes: also called CD47 antibody
B2: 7A11H22 (antibody, V domains shown)
VH: B1 VH with S16A, V68A, I70L, A72V
VL: B1 VL
notes: also called CD47 antibody
B3: 7A11H11 (antibody, V domains shown)
VH: B1 VH with S7P, S16A, V20L, V68A, I70L, A72V, L86P
VL: DIVMTQSPDSLAVSLGERATMNCKSSQSLLNSRTRKNYLAWYQQKPGQPPKLLIYWASTRESGVPDRFSGSGSGTDFTLTISSLQAEDVAVYYCKQSYNLRTFGGGTKLEIK
notes: also called CD47 antibody
B4: 7A11H42 (antibody, V domains shown)
VH: B1 VH with K65Q, D66G
VL: B1 VL
notes: also called CD47 antibody
B5: 7A11H12 (antibody, V domains shown)
VH: B1 VH with S7P, S16A, V20L, V68A, I70L, A72V, L86P
VL: B1 VL
notes: also called CD47 antibody
B6: 7A11H35 (antibody, V domains shown)
VH: B1 VH
VL: EIVMTQSPPTLSLSPGERVTMSCKSSQSLLNSRTRKNYLAWYQQKPGQAPRLLIYWASTRESGIPARFSGSGSGTDFTLTISSLQPEDFAVYYCKQSYNLRTFGGGTKLEIK
notes: also called CD47 antibody
B7: 7A11H14 (antibody, V domains shown)
VH: B1 VH with S7P, S16A, V20L, V68A, I70L, A72V, L86P
VL: B3 VL with S32T
notes: also called CD47 antibody
B8: 7A11H15 (antibody, V domains shown)
VH: B1 VH with S7P, S16A, V20L, V68A, I70L, A72V, L86P
VL: B6 VL
notes: also called CD47 antibody
B9: 7A11H33 (antibody, V domains shown)
VH: B1 VH
VL: B1 VL with S32T
notes: also called CD47 antibody
B10: 7A11H34 (antibody, V domains shown)
VH: B1 VH
VL: B3 VL with S32T
notes: also called CD47 antibody
B11: 7A11H52 (antibody, V domains shown)
VH: B1 VH with S27G, S28T, K65Q, D66G
VL: B1 VL
notes: also called CD47 antibody
B12: 7A11H55 (antibody, V domains shown)
VH: B1 VH with S27G, S28T, K65Q, D66G
VL: B6 VL
notes: also called CD47 antibody
B13: Hu5F9-G4 (antibody, V domains shown)
VH: QVQLVQSGAEVKKPGASVKVSCKASGYTFTNYNMHWVRQAPGQRLEWMGTIYPGNDDTSYNQKFKDRVTITADTSASTAYMELSSLRSEDTAVYYCARGGYRAMDYWGQGTLVTVSS
VL: DIVMTQSPLSLPVTPGEPASISCRSSQSIVYSNGNTYLGWYLQKPGQSPQLLIYKVSNRFSGVPDRFSGSGSGTDFTLKISRVEAEDVGVYYCFQGSHVPYTFGQGTKLEIKR

We go through 13 molecules from patent US20230312709A1 (GUANGDONG FEIPENG PHARMACEUTICAL, published 2023).

Substitutions are numbered along the chain they refer to.

The target of one assay is T1, human CD47 on CCRF-CEM cells (human, UniProt Q08722 19-323).
T1 construct: whole, on cells
As to the kind of experiment: flow cytometry competition on CCRF-CEM cells; blocked ligand hSIRPα-mFC, detected with PE goat anti-mouse IgG Fc. (In general: Flow cytometry measures light scatter and fluorescence of single cells or particles in a stream.)
For the molecule B1, the “IC50 (read off the curve)” value is around 2 nM.

Turning to B2, the “IC50 (read off the curve)” value is around 2 nM.

On to B3, for which the “IC50 (read off the curve)” value was around 2 nM.

Regarding B4, the “IC50 (read off the curve)” value was around 2 nM.

With B5, the “IC50 (read off the curve)” value was around 0.9 nM.

A further assay has as its target T2, hCD47-ECD-HIS recombinant protein (human, UniProt Q08722 19-139, limits assumed).
T2 construct: extracellular domain; also called hCD47 antigen; CD47 antigen
The assay is described as follows: BLI (ForteBio), antibody on AHC sensor, 100 nM CD47 antigen, 1:1 model. On the technique in general: BLI is a label-free optical method that tracks binding on a fibre tip over time.
Protocol: An equilibrium dissociation constant (KD) of the antibody of the present application binding to human CD47 (hCD47) was determined by a biofilm interferometry (ForteBio). […] Kinetic analysis was performed with a 1:1 binding model.
For the molecule B6, the Kd came to 0.881 nM.

As to B7, the Kd came to 0.562 nM.

In the case of B2, the Kd was found to be 0.74 nM.

As for B8, the Kd was 0.212 nM, the off-rate (koff) is 0.000313 s⁻¹ and the kon came out at 1.48e+06 M⁻¹ s⁻¹.

On to B3, for which the dissociation constant Kd worked out at 0.59 nM.

As to B4, the Kd was 0.309 nM.

With B5, the Kd was 0.459 nM.

Consider B9, for which the equilibrium dissociation constant (Kd) stood at 0.36 nM.

Another assay addresses T1, human CD47 on CCRF-CEM cells. As to the kind of experiment: flow cytometry competition on CCRF-CEM cells; blocked ligand hSIRPα-mFC, detected with PE goat anti-mouse IgG Fc. The source holds these as a separate data set.
As to B8, the “IC50 (read off the curve)” value is around 2 nM.

The target is the same in another assay. The assay is described as follows: flow cytometry on CCRF-CEM cells, MFI curve.
Protocol: The specific steps were as follows.
A cell line CCRF-CEM (Cell Bank of Chinese Academy of Sciences, Shanghai) expressing human CD47 was used, which belongs to human acute lymphoblastic leukemia T lymphocytes. […] Then, the cells were washed at least twice, a PE Goat anti human IgG Fc (1:500× dilution) fluorescent secondary antibody was prepared with a FCM buffer (1×PBS+3% BSA), added to a corresponding 96-well plate according to 100 μL/well, and incubated in a refrigerator at 4° C. for 30 min. The 96-well plate was taken out, and centrifuged at 250 g for 5 min, after a supernatant was carefully removed, the FCM buffer was added at 200 μL/well, and it was centrifuged again at 250 g for 5 min, the supernatant was carefully removed. The cells were washed at least twice and resuspended using 100 μL/well 1×PBS, and analyzed by the flow cytometry, and a concentration-dependent curve was fitted with GraphPad according to the mean fluorescence intensity (MFI) thereof.
In turn, B1 had a 50% effective concentration (EC50) of 0.717 nM.

For the molecule B6, the 50% effective concentration (EC50) is 0.862 nM.

Molecule B7 returned a concentration for a half-maximal effect (EC50) of 0.933 nM.

B2: the half-maximal effective concentration (EC50) is 0.82 nM.

Molecule B8 had a half-maximal effective concentration (EC50) of 0.723 nM.

The molecule B3 showed a concentration giving a half-maximal response (EC50) of 0.822 nM.

B4: the response was half-maximal at 0.727 nM (EC50).

Turning to B10, the concentration for a half-maximal effect (EC50) was 1.2 nM.

B5: it took 0.716 nM to reach a half-maximal effect (EC50).

Regarding B11, the EC50 turned out to be 0.915 nM.

The molecule B12 had a half-maximal effective concentration (EC50) of 1.21 nM.

As for B9, the concentration for a half-maximal effect (EC50) turned out to be 0.76 nM.

A further assay addresses T3, monkey CD47 on CHO-cynoCD47 cells (monkey).
T3 construct: whole, on cells; Cell line named CHO-cynoCD47; the text calls the species 'monkey'
The assay is described as follows: flow cytometry on CHO-cynoCD47 cells, MFI curve.
Protocol: Then, the cells were washed at least twice, a PE Goat anti human IgG Fc (1:500× dilution) fluorescent secondary antibody was prepared with a FCM buffer (1×PBS+3% BSA), added to a corresponding 96-well plate according to 100 μL/well, and incubated in a refrigerator at 4° C. for 30 min. The 96-well plate was taken out, and centrifuged at 250 g for 5 min, after a supernatant was carefully removed, the FCM buffer was added at 200 μL/well, and it was centrifuged again at 250 g for 5 min, the supernatant was carefully removed. The cells were washed at least twice and resuspended with 1×PBS at 100 μL/well, and analyzed by the flow cytometry, and a concentration-dependent curve was fitted with GraphPad according to MFI thereof.
The molecule B13 showed a half-maximal effective concentration (EC50) of 5.12 nM.

In the case of B1, the half-maximal effective concentration (EC50) came to 17.1 nM.

Molecule B6 gave an EC50 of 4.38 nM.

B7 registered a half-maximal effective concentration (EC50) of 4.96 nM.

As to B2, the EC50 is 8.55 nM.

B8 yielded an EC50 of 7.27 nM.

Molecule B3 showed an EC50 of 8.93 nM.

Turning to B4, the 50% effective concentration (EC50) was found to be 5 nM.

As for B10, the 50% effective concentration (EC50) was 8.61 nM.

Regarding B5, the EC50 amounted to 7.35 nM.

As to B11, the response was half-maximal at 4.51 nM (EC50).

B12 yielded a half-maximal effective concentration (EC50) of 4.62 nM.

With B9, the EC50 is 4.85 nM.

Usually Kd stands for the free concentration of one partner at which half of the binding sites on the other are occupied at equilibrium, for simple one-to-one binding. In general, koff refers to the rate constant with which the complex falls apart. What is called kon is a measure of how fast the partners come together. The term EC50 denotes the concentration at which the effect is half-maximal.
